The target in this assay is T1, K88 pilus protein antigen (also known as the F4 fimbriae adhesin) (Escherichia coli (enterotoxigenic)).
T1 construct: Used as ELISA coat and as the ligand amine-coupled to the CM5 SPR chip; also called K88 antigen; K88 pili
The experiment in a line: SPR (Biacore), K88 pili coupled to a CM5 chip, purified antibody as analyte. (Surface plasmon resonance follows binding to a sensor surface in real time, without labels.)

T1 sequence (P14190 22-283): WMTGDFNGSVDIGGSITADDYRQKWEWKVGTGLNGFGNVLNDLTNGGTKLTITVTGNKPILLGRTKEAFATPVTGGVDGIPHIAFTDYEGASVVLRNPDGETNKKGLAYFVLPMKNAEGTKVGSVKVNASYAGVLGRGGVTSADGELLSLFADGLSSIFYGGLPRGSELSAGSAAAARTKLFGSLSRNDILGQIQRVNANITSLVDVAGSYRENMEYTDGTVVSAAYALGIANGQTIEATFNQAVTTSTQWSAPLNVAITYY

B1: plant-produced anti-K88 antibody 36/41 with ER retention signal (corn, pTMR554) (antibody)
chain 1: EVQLQQSGPELVKTGASVKISCKASDYSLTDYYMHWVKQSHGESLEWIGYINFYNGATNYNQKFKGKATFTVDTSSSTVYMQFNSLTSEDSAVYYCVREALLRNYAMDYWGQGTSVTVSSAKTTPPSVYPLAPGSAAQTNSMVTLGCLVKGYFPEPVTVTWNSGSLSSGVHTFPAVLQSDLYTLSSSVTVPSSTWPSETVTCNVAHPASSTKVDKKIVPRDCGCKPCICTVPEVSSVFIFPPKPKDVLTITLTPKVTCVVVDISKDDPEVQFSWFVDDVEVHTAQTQPREEQFNSTFRSVSELPIMHQDWLNGKEFKCRVNSAAFPAPIEKTISKTKGRPKAPQVYTIPPPKEQMAKDKVSLTCMITDFFPEDITVEWQWNGQPAENYKNTQPIMDTDGSYFVYSKLNVQKSNWEAGNTFTCSVLHEGLHNHHTEKSLSHSPGKSEKDEL
chain 2: ENVLTQSPAIMSASPGEKVTMTCRASSSVSSRYLHWYQQKSGASPKLWIYSTSNLASGVPARFSGSGSGTSYSLTISSVEAEDAATYYCQQYSGYPWTFGGGTKLEIKRADAAPTVSIFPPSSEQLTSGGASVVCFLNNFYPKDINVKWKIDGSERQNGVLNSWTDQDSKDSTYSMSSTLTLTKDEYERHNSYTCEATHKTSTSPIVKSFNRNECSEKDEL
On to B1, for which the Kd is 30 pM.

B2: anti-K88 monoclonal IgG1 antibody 36/41 purified from hybridoma cells (antibody)
chain 1: EVQLQQSGPELVKTGASVKISCKASDYSLTDYYMHWVKQSHGESLEWIGYINFYNGATNYNQKFKGKATFTVDTSSSTVYMQFNSLTSEDSAVYYCVREALLRNYAMDYWGQGTSVTVSSAKTTPPSVYPLAPGSAAQTNSMVTLGCLVKGYFPEPVTVTWNSGSLSSGVHTFPAVLQSDLYTLSSSVTVPSSTWPSETVTCNVAHPASSTKVDKKIVPRDCGCKPCICTVPEVSSVFIFPPKPKDVLTITLTPKVTCVVVDISKDDPEVQFSWFVDDVEVHTAQTQPREEQFNSTFRSVSELPIMHQDWLNGKEFKCRVNSAAFPAPIEKTISKTKGRPKAPQVYTIPPPKEQMAKDKVSLTCMITDFFPEDITVEWQWNGQPAENYKNTQPIMDTDGSYFVYSKLNVQKSNWEAGNTFTCSVLHEGLHNHHTEKSLSHSPGK
chain 2: ENVLTQSPAIMSASPGEKVTMTCRASSSVSSRYLHWYQQKSGASPKLWIYSTSNLASGVPARFSGSGSGTSYSLTISSVEAEDAATYYCQQYSGYPWTFGGGTKLEIKRADAAPTVSIFPPSSEQLTSGGASVVCFLNNFYPKDINVKWKIDGSERQNGVLNSWTDQDSKDSTYSMSSTLTLTKDEYERHNSYTCEATHKTSTSPIVKSFNRNEC
Molecule B2 had a Kd of 30 pM.

One may read the Kd as the free concentration of one partner at which half of the binding sites on the other are occupied at equilibrium, for simple one-to-one binding. A lower Kd goes with a tighter complex.
